Data from patent US11118167B2, “Enzyme-mediated depletion of adenosine and/or methylthioadenosine” (BOARD OF REGENTS, THE UNIVERSITY OF TEXAS SYSTEM, priority 2017, dated 2021).

Assays:
[1] = test system: murine T cells; test: Restoring proliferation of murine T cells treated with MTA (CellTrace Violet, FACS); assay type: cell-based, mouse; conditions: 5 μM enzyme, CD8+ and CD4+ T cells
Text: Spleens dissected from healthy 8-week-old C57BL6 mice were crushed in a 70 μm Falcon™ Cell Strainer to obtain single cells, which were further isolated using the EasySep™ Mouse T-Cell Isolation Kit (Stem Cell). Isolated T cells were brought to a concentration of 1×10^6 cells/mL in PBS and were processed according to the CellTrace™ Violet Cell Proliferation Kit protocol (Thermo Fisher), which measures proliferation as a function of dye dilution with each cell-division. The labeled cells were then re-counted and brought to 1×10^6 cells/mL of RPMI media and 1 mL/well were plated, after which anti-CD3/CD28 beads were added to activate the T cells (Dynabeads® Mouse T-Activator CD3/CD28 for T-Cell Expansion and Activation from Thermo Fisher) according to the protocol from the kit. Subsequently, three different MTA concentrations, 0 μM MTA, 125 μM MTA, or 250 μM MTA were added to the plated cells. Finally, MTAP and MTAN were added to the appropriate wells at a final concentration of 5 μM enzyme, and PBS was added to the control wells. After incubation for five days, cells were then collected and stained with anti-CD3, anti-CD4, anti-CD8, and Fixable Viability Dye eFluor™ 520 and analyzed by FACS. The antibodies used were all from Biolegend: PE anti-mouse CD3 (17A2), APC anti-mouse CD4 (GK1.5), APC/Fire™ 750 anti-mouse CD8a (53-6.7), and Brilliant Violet 421™ anti-mouse Ki-67 (16A8). […]

[2] = Kinetic stability of purified enzymes in phosphate buffer; assay type: physicochemical
Experimental: The kinetic stabilities of purified hs-MTAP and se-MTAN enzymes were determined by incubating the enzymes in a 100 mM phosphate buffer (pH 7.4) at 37° C. Over the course of four days, aliquots of hs-MTAP and se-MTAN were withdrawn from the incubations and assessed for their ability to degrade MTA as described in Example 5. The resulting data were processed and fitted to an exponential equation to determine the decay rate.

[3] = test system: B16-F10 MTAP−/− allografts; test: Efficacy in the B16-MTAP−/− melanoma tumor model; assay type: in vivo, mouse; conditions: 50 mg/kg three times/week peri-tumoral, 2 weeks
Text: As B16 is a very well characterized cell line in terms of metabolism and its interaction with host immune systems, it was hypothesized that an MTAP deletion in this strain would create a relevant model to evaluate the consequences of MTA accumulation both metabolically to the tumor and upon the host immune system. Cas9 protein (TrueCut™ Cas9 Protein v2) and synthetic single guide RNA purchased through ThermoFisher were transfected into B16-F10 WT cells using lypofectamine (Lipofectamine™ CRISPRMAX™ Cas9 Transfection Reagent). After two days of transfection, cells were plated using limited dilution method into ten 96-well plates. Plates were examined daily for single cell clones and after reaching confluency (10-14 days post transfection) clones were further expanded and analyzed for MTAP expression through Western blotting, and clones lacking MTAP expression were verified for gene disruption by cloning and sequencing.
(§1) Two cohorts each of C57/BL6 mice were subcutaneously inoculated with either 50,000 WT B16-F10 or B16-F10 MTAP^−/− cells. When the tumors reached a mean size of 55 mm^3 the mice were treated with either vehicle (PBS) or 50 mg/kg of PEG-MTAP three times/week by peri-tumoral injection for 2 weeks. As expected from a tumor highly expressing MTAP, it was observed that PEG-MTAP treatment had no effect on the growth of WT B16-F10 tumors (FIG. 8A).

[4] = test system: WT B16-F10 tumors; test: Efficacy in the B16 WT melanoma tumor model; assay type: in vivo, mouse; conditions: C57/BL6 mice, 50 mg/kg three times/week peri-tumoral, 2 weeks
Experimental: as §1

[5] = test system: B16-F10 MTAP−/− tumor; test: Immune phenotype in the B16-MTAP−/− melanoma tumor model (FACS); assay type: in vivo, mouse; conditions: two doses, 24 hr post dose, vs vehicle
Experimental: Lymphocyte panels observed by FACS analyses from C57/BL6 mice bearing B16-F10 MTAP^−/− tumor samples were assessed after treatment with two doses of PEG-MTAP or vehicle (analyzed 24 hr post dose).

B1: hs-MTAP: MTAP enzyme from Homo sapiens (SEQ ID NO: 1), N-terminal His6 tag, expressed in E. coli (protein, listed as Homo sapiens)
chain: MASGTTTTAVKIGIIGGTGLDDPEILEGRTEKYVDTPFGKPSDALILGKIKNVDCVLLARHGRQHTIMPSKVNYQANIWALKEEGCTHVIVTTACGSLREEIQPGDIVIIDQFIDRTTMRPQSFYDGSHSCARGVCHIPMAEPFCPKTREVLIETAKKLGLRCHSKGTMVTIEGPRFSSRAESFMFRTWGADVINMTTVPEVVLAKEAGICYASIAMATDYDCWKEHEEAVSVDRVLKTLKENANKAKSLLLTTIPQIGSTEWSETLHNLKNMAQFSVLLPRH
modifications: N-terminal His6 tag
reversal of the MTA effect on T cell proliferation and viability [1]: completely reversed | half-life (T1/2) of activity ([2]; pH 7.4): 57 h

B2: PEG-hs-MTAP: hs-MTAP with surface lysine residues reacted with Methoxyl PEG Succinimidyl Carbonate 5000 MW (conjugate, UniProt Q13126 1-283, looked up)
S-methyl-5'-thioadenosine …: B1 chain
modifications: PEG 5000
notes: hs-MTAP with surface lysine residues reacted with Methoxyl PEG Succinimidyl Carbonate 5000 MW
complete responses (CRs) in the treatment group ([3]; 3/7 CRs): 43% | tumor growth ([3]; C57/BL6 mice): drastically retarded tumor growth | tumor growth [4]: no effect | percentage of CD4+ T cells [5]: large increases | percentage of NK1.1+ natural killer cells [5]: large increases | percentage of proliferating CD8+ Granzyme B+ T cells [5]: large increases

B3: se-MTAN: MTAN enzyme from Salmonella enterica (SEQ ID NO: 3), N-terminal His6 tag, expressed in E. coli (protein, listed as Salmonella enterica)
chain: MKIGIIGAMEEEVTLLRDKIDNRQTITLGGCEIYTGQLNGTEVALLKSGIGKVAAALGATLLLEHCKPDVIINTGSAGGLASTLKVGDIVVSDETRYHDADVTAFGYEYGQLPGCPAGFKADDKLIAAAESCIRELNLNAVRGLIVSGDAFINGSVGLAKIRHNFPDAVAVEMEATAIAHVCHNFNVPFVVVRAISDVADQQSHLSFDEFLAVAAKQSTLMVETLVQKLAHG
modifications: N-terminal His6 tag
reversal of the MTA effect on T cell proliferation and viability [1]: completely reversed | half-life (T1/2) of activity ([2]; 100 mM phosphate buffer, pH 7.4, 37° C.): 56 h
